According to the supplement of paper PMC12042874:
± gives the uncertainty stated by the source.

Assay: amyloid nucleation score (Sup35N fusion, yeast selection) (log enrichment); library NNK1; higher = more nucleation; inactive = no reads after selection
Summary of the method: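 Nucleation score is defined as the DiMSum log enrichment of output over input reads, with centring on the mode score of non-aggregating sequences. A minimum of 100 input reads was required for each sequence. Reads came from Illumina sequencing of plasmid inserts from psi-negative yeast expressing Sup35N fused to peptides of 20 random codons, induced with 100 μM copper sulfate for 24 hours and grown 7 days at 30°C on medium lacking adenine and uracil.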

Substance	amyloid nucleation score
ALDVARDKDVILYEFQLELR	0.366 ± 0.72
LAGMMHAPVVLGLWSCDGDG	-0.974 ± 2.4
LDDWRVMLVSANMHHVRC	-0.642 ± 0.39
MLVPRSRIRIPACRFQHRLP	-0.064 ± 0.35
TVRGSTRSKLSGASWQCWRA	-0.023 ± 0.21
NYVIGRVIISMYGNDVTRLP	4.23 ± 0.095
YHSSYVK	-1.36 ± 2.7
IETVLIVAY	0.355 ± 0.53
RWRKVGIKEGLIMLESGVSR	-0.921 ± 2.4
RMYYT	-1.52 ± 0.82
MASPLSLGKAVALAKHKWGD	0.001 ± 1.1
ISRVIFLR	1.41 ± 0.78
FHHMVLE	-0.783 ± 0.54
TSLWCQLRKFNYI	-0.181 ± 0.26
YYCYLLTNHPNTNGSVAFRL	0.934 ± 0.44
TVCYTGEVRMLRS	4.22 ± 0.068
RISLRYGQRC	0.356 ± 0.28
MMSPLKR	inactive
AYLYQSSYLVRC	0.368 ± 0.36
YFYIPFNEMNRWTYCCIRWW	-0.04 ± 0.36
FCNSALLSQLGFLKTWDQRG	-0.604 ± 1.6
ISMGWWIDYGPY	-0.724 ± 0.81

Substance	amyloid nucleation score
GLSQKVGKPAAALLRTMVSD	-0.309 ± 0.27
RDYYIVNSGLKLEYHLLI	3.77 ± 0.051
MSAGIVFIKQFVCS	3.25 ± 0.12
WHDKVKDFRIRAGHLSYSRG	0.486 ± 0.63
HWNHYWQ	-0.07 ± 0.46
NGCLFILFCILLFKAQPSIA	0.057 ± 0.78
NNLILPGWM	-0.612 ± 0.55
LLKVQGF	1.13 ± 0.51
WFARNTLLEWEN	-1.57 ± 2.1
QVHPPMTTGPC	0.291 ± 0.53
PSRDSV	-1.06 ± 1.2
GMYRVNSWIMSL	inactive
VKTISCYMWFNVFN	7.81 ± 0.05
ISHSIAVRNNLLLFGPCQNR	2.12 ± 0.12
LHSNGSD	inactive
MDSCCIMTMIKHELGLPYQP	3.77 ± 0.1
AVNSGRWLSVLRRRMESFLV	0.203 ± 0.42
FPYGSVIVVFVDFWYRLSSV	-0.343 ± 0.34
FVKVAPANKGISGKRDLCKL	0.215 ± 0.3
GMAVFV	0.18 ± 1.1
MQVHARFYSFREEDIAGRAR	-0.443 ± 0.52
ADCFNLYGRTFDKFKPPHMD	0.631 ± 0.54

Substance	amyloid nucleation score
AKSLVDRKRVDNPWRFSVGW	0.297 ± 0.51
GVLGTGMRNCA	0.277 ± 0.88
LLVKNHMRSQEWPLKNSLTN	-1.24 ± 2.4
WMYTMTGFEVNRTVNFYWTI	-0.095 ± 0.29
VMGFHT	-0.402 ± 1.9
EIVVIASRTASPDFIN	1.01 ± 0.74
LSGWRYMVKA	0.039 ± 0.41
CKRLS	-0.216 ± 1.1
GGRLNQHLRSNNTGTHHPGY	-0.533 ± 0.31
LSEKYTIPVLFHVLKIITGI	0.495 ± 0.45
VIGCAGSDLNLRSILCFILC	-0.364 ± 0.28
YASSYNKRCNNVMNVVW	-0.299 ± 0.25
NTMLQKVKCWKRRVDSSRQE	0.093 ± 0.87
MFNRWDIHFIGNNNLYGICV	0.613 ± 0.26
ISLLGIWV	0.939 ± 0.31
MITARSLSPRIFRAESAYSE	0.117 ± 0.36
LSNRVLEGFNSSWYISIRGF	-0.434 ± 1.7
CRYPWRH	-0.042 ± 0.6
IAYLNKAKNLFLC	inactive
ARWMVWTLESHLPDNFTMVN	-1.21 ± 1.1
ADPLMI	-0.163 ± 0.28
ASSIDYQRTS	0.322 ± 0.71

Substance	amyloid nucleation score
KACDRFNLTYKTVSVRMGDC	0.39 ± 0.28
VRLMQIWGV	-0.5 ± 2.1
FVVIEILDFSPFDHCFIILE	1.26 ± 0.48
SHSFPGMWTDDTSALASREK	0.306 ± 0.59
LIIRVWLKNQPDTLGKRRRE	-0.415 ± 1.4
LRHMLIAAFSDWVKYWGCAR	0.194 ± 0.51
IFKGGFTWYCCDKARGLKGR	0.411 ± 0.34
HLWSFAEMLNNHAVEDCVCT	inactive
AYTEMNLRIVERYSMNTIRP	2.14 ± 0.26
IATNRGMCLGLRVSGLDMAR	1.13 ± 0.49
LLRWLFCFEWHDSNMSTNII	-1.76 ± 2.4
LREECKVAWYLNGDCVVYCK	inactive
QYFSWGRVATCSACG	0.309 ± 0.62
HMVFQVKFWTNHRQVFSLPY	2.91 ± 0.14
RNFLNAYW	-0.307 ± 0.85
GTYLAFYSLSLCRYTKCLER	-0.22 ± 0.47
GFWDFWVGRCLSSYVQFANL	0.28 ± 0.48
YSEFRDSLRSGIPLVPFVIQ	0.066 ± 0.88
FLARNFCIC	5.67 ± 0.064
WSSHYVSLRKVCVCGRRPWS	3.46 ± 0.079
RKIVYVYEDVVRLNTCRISS	0.034 ± 0.93
